Assay results taken from patent US20210101960A1.

Tests used:
[1] = target: opioid sensor based on the Mu-opioid receptor (cpGFP inserted into the Loop3 of the Mu-opioid receptor) (human); assay: cell-based or functional assay
[2] = target: opioid sensor based on the Mu-opioid receptor (cpGFP inserted into the Loop3 of the Mu-opioid receptor) (human); assay: in situ fluorescence titration (drug/response curve, 1 nM to 1 µM DAMGO) on HEK293T cells expressing the opioid sensor

ΔF/F (fluorescence change of the sensor) [1]: 25%
Kd [2]: 0.025 µM
Substance: DAMGO (peptide)
